Patent US20090137467A1
Like-named read-outs stand apart in the source and are kept apart here.

What was measured:
[1] = biological target: [Asn516]β-RNAP (Escherichia coli)
[2] = biological target: [Asn516]β-RNAP (Escherichia coli); remark: listed apart in the source
[3] = biological target: Escherichia coli RNA polymerase (Escherichia coli) (UniProt P0A8T7)

| Substance | inhibition of transcription (IC50) [1] | inhibition of transcription (IC50) [2] | inhibition of RNAP (IC50) [3] |
| --- | --- | --- | --- |
| {rifamycin SV}-{CH2C(O)NH(CH2)6NHC(O)CH2S(CH2)3C(NH2+)}-{[Lys5]MccJ25} (from UniProt Q9X2V7) (peptide) | 130 µM |  |  |
| {rifamycin SV}-{CH2C(O)NH(CH2)8NHC(O)CH2S(CH2)3C(NH2+)}-{[Lys5]MccJ25} (from UniProt Q9X2V7) (peptide) | 100 µM |  |  |
| {rifamycin SV}-{CH2C(O)NH(CH2)10NHC(O)(CH2)2(C2N3)(CH2)4C(O)}-{[Lys5]microcin J25} (from UniProt Q9X2V7) (peptide) |  | 220 µM |  |
| {rifamycin SV}-{CH2C(O)NH(CH2)10NHC(O)CH2S(CH2)3C(NH2+)}-{[Lys5]MccJ25} (from UniProt Q9X2V7) (peptide) | 95 µM |  |  |
| {rifamycin SV}-{CH2C(O)NH(CH2)12NHC(O)CH2S(CH2)3C(NH2+)}-{[Lys5]microcin J25} (from UniProt Q9X2V7) (peptide) | 48 µM |  | 0.002 µM |
